Laboratory results reported in publication PMC9482650, “Quantitative fragmentomics allow affinity mapping of interactomes” (Nature Communications, 2022).

T1: DLG3_1, Q92796
T1 sequence (Q92796 125-227, limits assumed, looked up): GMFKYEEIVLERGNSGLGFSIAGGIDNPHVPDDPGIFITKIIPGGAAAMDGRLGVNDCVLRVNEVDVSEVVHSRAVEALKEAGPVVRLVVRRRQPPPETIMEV

T2: DLG3_3, Q92796
T2 sequence (Q92796 374-475, limits assumed, looked up): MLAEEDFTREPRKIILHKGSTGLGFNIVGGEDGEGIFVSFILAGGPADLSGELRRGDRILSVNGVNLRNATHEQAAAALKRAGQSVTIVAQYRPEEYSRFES

T3: HTRA3, P83110
T3 sequence (P83110 354-453, limits assumed, looked up): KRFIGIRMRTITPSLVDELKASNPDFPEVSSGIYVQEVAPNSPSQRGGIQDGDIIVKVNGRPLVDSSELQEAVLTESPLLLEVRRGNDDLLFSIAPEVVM

T4: APBA1_1, Q02410
T4 sequence (Q02410 651-752, limits assumed, looked up): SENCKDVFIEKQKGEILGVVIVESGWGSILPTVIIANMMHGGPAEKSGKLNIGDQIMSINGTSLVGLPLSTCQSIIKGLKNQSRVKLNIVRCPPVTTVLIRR

T5: ARHGAP21, Q5T5U3
T5 sequence (Q5T5U3 45-169, limits assumed, looked up): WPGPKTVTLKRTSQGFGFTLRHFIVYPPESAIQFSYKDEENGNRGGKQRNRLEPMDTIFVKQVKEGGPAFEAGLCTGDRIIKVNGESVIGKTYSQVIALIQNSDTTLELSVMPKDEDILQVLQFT

T6: NHERF3_3, Q5T2W1
T6 sequence (Q5T2W1 238-333, limits assumed, looked up): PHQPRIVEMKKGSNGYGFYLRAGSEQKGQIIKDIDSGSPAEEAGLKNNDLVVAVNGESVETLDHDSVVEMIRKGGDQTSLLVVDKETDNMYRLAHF

T7: PCLO, Q9Y6V0
T7 sequence (Q9Y6V0 4491-4600, limits assumed, looked up): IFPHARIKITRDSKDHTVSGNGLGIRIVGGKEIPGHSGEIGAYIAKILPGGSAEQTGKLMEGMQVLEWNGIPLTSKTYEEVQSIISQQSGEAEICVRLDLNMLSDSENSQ

T8: MPP6, Q9NZW5
T8 sequence (Q9NZW5 125-219, limits assumed, looked up): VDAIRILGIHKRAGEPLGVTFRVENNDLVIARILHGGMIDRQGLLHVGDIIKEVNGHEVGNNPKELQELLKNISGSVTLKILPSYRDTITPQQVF

T9: TJP3_3, O95049
T9 sequence (O95049 375-456, limits assumed, looked up): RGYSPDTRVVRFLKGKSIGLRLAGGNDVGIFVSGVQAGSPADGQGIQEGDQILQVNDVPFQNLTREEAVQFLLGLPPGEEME

T10: DFNB31_1, Q9P202
T10 sequence (Q9P202 135-233, limits assumed, looked up): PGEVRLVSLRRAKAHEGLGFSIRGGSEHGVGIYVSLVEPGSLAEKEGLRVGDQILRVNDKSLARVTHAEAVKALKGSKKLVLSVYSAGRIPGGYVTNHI

T11: HTRA4, P83105
T11 sequence (P83105 378-476, limits assumed, looked up): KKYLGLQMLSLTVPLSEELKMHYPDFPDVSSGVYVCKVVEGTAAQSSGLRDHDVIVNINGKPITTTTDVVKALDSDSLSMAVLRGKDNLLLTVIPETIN

T12: RHPN1, Q8TCX5
T12 sequence (Q8TCX5 508-602, limits assumed, looked up): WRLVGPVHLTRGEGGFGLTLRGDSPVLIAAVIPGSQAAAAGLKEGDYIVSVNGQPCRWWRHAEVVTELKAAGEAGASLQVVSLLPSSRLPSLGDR

T13: MPDZ_5, O75970
T13 sequence (O75970 695-796, limits assumed, looked up): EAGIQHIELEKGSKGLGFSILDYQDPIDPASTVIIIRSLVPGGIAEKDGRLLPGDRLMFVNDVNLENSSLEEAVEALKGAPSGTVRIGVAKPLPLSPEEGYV


Key:
Experiment in all cases: holdup assay
Parameters in all cases: key: below the threshold = too weak to quantify, mostly under pKd 3.1 to 4
Settings in all cases: plain residues with an end cap or a label only (N-terminal biotin on a linker: ado-ado)
[1] = biological target: T1, DLG3_1, Q92796
[2] = biological target: T2, DLG3_3, Q92796
[3] = biological target: T3, HTRA3, P83110
[4] = biological target: LNX1_1, Q8TBB1
[5] = biological target: T4, APBA1_1, Q02410
[6] = biological target: T5, ARHGAP21, Q5T5U3
[7] = biological target: LIMK2, P53671
[8] = biological target: MAGI2_6, Q86UL8
[9] = biological target: DLG1_1, Q12959
[10] = biological target: T6, NHERF3_3, Q5T2W1
[11] = biological target: T7, PCLO, Q9Y6V0
[12] = biological target: T8, MPP6, Q9NZW5
[13] = biological target: T9, TJP3_3, O95049
[14] = biological target: GORASP2, Q9H8Y8
[15] = biological target: MAGI1_1, Q96QZ7
[16] = biological target: LNX1_3, Q8TBB1
[17] = biological target: T10, DFNB31_1, Q9P202
[18] = biological target: T11, HTRA4, P83105
[19] = biological target: PDZRN4_1, Q6ZMN7
[20] = biological target: ARHGEF12, Q9NZN5-2
[21] = biological target: T12, RHPN1, Q8TCX5
[22] = biological target: PTPN3, P26045
[23] = biological target: T13, MPDZ_5, O75970
[24] = biological target: GORASP1, Q9BQQ3
Chain of GORASP1, Q9BQQ3 (Q9BQQ3 1-208): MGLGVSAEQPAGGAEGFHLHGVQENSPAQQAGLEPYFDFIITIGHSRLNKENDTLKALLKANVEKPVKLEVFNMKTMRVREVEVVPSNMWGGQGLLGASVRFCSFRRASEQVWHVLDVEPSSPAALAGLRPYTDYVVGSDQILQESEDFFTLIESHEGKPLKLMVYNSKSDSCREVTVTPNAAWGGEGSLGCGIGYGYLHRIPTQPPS

Chain of LNX1_3, Q8TBB1 (Q8TBB1 500-596): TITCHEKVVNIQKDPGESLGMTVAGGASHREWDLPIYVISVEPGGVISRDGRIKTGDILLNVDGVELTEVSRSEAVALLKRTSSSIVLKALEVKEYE
Chain of ARHGEF12, Q9NZN5-2 (Q9NZN5 other isoform, or with tags, fused parts or gaps): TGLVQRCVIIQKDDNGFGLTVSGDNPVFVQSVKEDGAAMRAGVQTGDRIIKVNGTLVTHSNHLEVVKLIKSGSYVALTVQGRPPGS
Chain of LIMK2, P53671 (P53671 143-248): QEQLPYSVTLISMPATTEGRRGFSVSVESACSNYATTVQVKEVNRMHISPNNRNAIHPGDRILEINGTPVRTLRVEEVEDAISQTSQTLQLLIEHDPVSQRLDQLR
Chain of PDZRN4_1, Q6ZMN7 (Q6ZMN7 213-318): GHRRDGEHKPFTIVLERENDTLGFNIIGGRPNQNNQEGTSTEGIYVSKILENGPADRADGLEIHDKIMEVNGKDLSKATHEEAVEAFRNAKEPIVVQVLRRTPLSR
Chain of MAGI2_6, Q86UL8 (Q86UL8 1141-1229): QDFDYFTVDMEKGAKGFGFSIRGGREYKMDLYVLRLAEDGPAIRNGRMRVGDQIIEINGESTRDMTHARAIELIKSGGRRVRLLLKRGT
Chain of LNX1_1, Q8TBB1 (Q8TBB1 261-371): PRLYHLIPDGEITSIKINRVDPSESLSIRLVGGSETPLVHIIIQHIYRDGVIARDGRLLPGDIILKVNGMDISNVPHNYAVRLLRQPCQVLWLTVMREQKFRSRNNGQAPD
Chain of MAGI1_1, Q96QZ7 (Q96QZ7 1-106): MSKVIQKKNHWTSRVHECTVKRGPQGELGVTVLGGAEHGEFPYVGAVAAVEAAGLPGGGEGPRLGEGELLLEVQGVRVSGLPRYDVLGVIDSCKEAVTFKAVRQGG
Chain of PTPN3, P26045 (P26045 505-587): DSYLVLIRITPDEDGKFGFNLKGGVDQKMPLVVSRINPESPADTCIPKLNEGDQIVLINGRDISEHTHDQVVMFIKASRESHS

Binder	pKd [1]	pKd [2]	pKd [3]	pKd [4]	pKd [5]	pKd [6]	pKd [7]	pKd [8]	pKd [9]	pKd [10]	pKd [11]	pKd [12]	pKd [13]	pKd [14]	pKd [15]	pKd [16]	pKd [17]	pKd [18]	pKd [19]	pKd [20]	also measured
LESTTVGTSV [KARS1, Q15046]	3.98	3.6	below the threshold	3.97	below the threshold	below the threshold	below the threshold	4.32	4.27	below the threshold	below the threshold	below the threshold	below the threshold	below the threshold	3.5	below the threshold	3.61	below the threshold	4.29	4.03	pKd [21]: 4.07; pKd [22]: 4.82; pKd [23]: below the threshold; pKd [24]: below the threshold
STKRKLASAV [NCF1, P14598]	3.49	below the threshold	below the threshold	below the threshold	below the threshold	below the threshold	below the threshold	below the threshold	3.68	below the threshold	below the threshold	below the threshold	below the threshold	below the threshold	below the threshold	below the threshold	below the threshold	below the threshold	below the threshold	3.79	pKd [21]: below the threshold; pKd [22]: 3.95; pKd [23]: below the threshold; pKd [24]: below the threshold
TNSRHGETTV [FZD2, Q14332]	4.33	4.24	below the threshold	below the threshold	below the threshold	4.04	below the threshold	4.26	4.76	below the threshold	below the threshold	below the threshold	below the threshold	4.19	below the threshold	below the threshold	3.78	below the threshold	4.18	3.57	pKd [21]: 4.16; pKd [22]: 4.61; pKd [23]: below the threshold; pKd [24]: 3.88
VKRNSKETVV [MARCHF3, Q86UD3]	4.77	4.7	below the threshold	below the threshold	below the threshold	below the threshold	below the threshold	below the threshold	5.48	below the threshold	below the threshold	below the threshold	below the threshold	4.6	below the threshold	below the threshold	3.64	below the threshold	below the threshold	4.13	pKd [21]: 4.07; pKd [22]: 4.79; pKd [23]: below the threshold; pKd [24]: 4.09

Now from value to binder, other results behind:

pKd [1]	pKd [2]	pKd [3]	pKd [4]	pKd [5]	pKd [6]	pKd [7]	pKd [8]	pKd [9]	pKd [10]	pKd [11]	pKd [12]	pKd [13]	pKd [14]	pKd [15]	pKd [16]	pKd [17]	pKd [18]	pKd [19]	pKd [20]	Binder	also measured
4.26	3.97	below the threshold	below the threshold	below the threshold	3.92	below the threshold	below the threshold	4.76	below the threshold	below the threshold	below the threshold	below the threshold	4.73	below the threshold	below the threshold	below the threshold	4.12	below the threshold	4.26	ILRKSTTTTV [PRR16, Q569H4]	pKd [21]: 4.01; pKd [22]: 3.92; pKd [23]: below the threshold; pKd [24]: 4.19
4.29	below the threshold	below the threshold	4.36	below the threshold	below the threshold	below the threshold	3.96	4.57	below the threshold	below the threshold	below the threshold	below the threshold	below the threshold	below the threshold	below the threshold	3.8	below the threshold	3.99	below the threshold	NIAESLESLV [PTPRZ1, P23471]	pKd [21]: 4.6; pKd [22]: 4.64; pKd [23]: below the threshold; pKd [24]: below the threshold
